Source: article PMC11574045, “A cofactor-induced repressive type of transcription factor condensation can be induced by synthetic peptides to suppress tumorigenesis” (The EMBO Journal, 2024)

B1: ATF7 (protein, UniProt P17544 1-483, looked up)
Cyclic AMP-dependent …: MGDDRPFVCNAPGCGQRFTNEDHLAVHKHKHEMTLKFGPARTDSVIIADQTPTPTRFLKNCEEVGLFNELASSFEHEFKKAADEDEKKAAAGPLDMSLPSTPDIKIKEEEPVEVDSSPPDSPASSPCSPPLKEKEVTPKPVLISTPTPTIVRPGSLPLHLGYDPLHPTLPSPTSVITQAPPSNRQMGSPTGSLPLVMHLANGQTMPVLPGPPVQMPSVISLARPVSMVPNIPGIPGPPVNSSGSISPSGHPIPSEAKMRLKATLTHQVSSINGGCGMVVGTASTMVTARPEQSQILIQHPDAPSPAQPQVSPAQPTPSTGGRRRRTVDEDPDERRQRFLERNRAAASRCRQKRKLWVSSLEKKAEELTSQNIQLSNEVTLLRNEVAQLKQLLLAHKDCPVTALQKKTQGYLESPKESSEPTGSPAPVIQHSSATAPSNGLSVRSAAEAVATSVLTQMASQRTELSMPIQSHVIMTPQSQSAGR
B2: NR3C2 (protein, UniProt P08235 1-984, looked up)
Mineralocorticoid receptor: METKGYHSLPEGLDMERRWGQVSQAVERSSLGPTERTDENNYMEIVNVSCVSGAIPNNSTQGSSKEKQELLPCLQQDNNRPGILTSDIKTELESKELSATVAESMGLYMDSVRDADYSYEQQNQQGSMSPAKIYQNVEQLVKFYKGNGHRPSTLSCVNTPLRSFMSDSGSSVNGGVMRAVVKSPIMCHEKSPSVCSPLNMTSSVCSPAGINSVSSTTASFGSFPVHSPITQGTPLTCSPNVENRGSRSHSPAHASNVGSPLSSPLSSMKSSISSPPSHCSVKSPVSSPNNVTLRSSVSSPANINNSRCSVSSPSNTNNRSTLSSPAASTVGSICSPVNNAFSYTASGTSAGSSTLRDVVPSPDTQEKGAQEVPFPKTEEVESAISNGVTGQLNIVQYIKPEPDGAFSSSCLGGNSKINSDSSFSVPIKQESTKHSCSGTSFKGNPTVNPFPFMDGSYFSFMDDKDYYSLSGILGPPVPGFDGNCEGSGFPVGIKQEPDDGSYYPEASIPSSAIVGVNSGGQSFHYRIGAQGTISLSRSARDQSFQHLSSFPPVNTLVESWKSHGDLSSRRSDGYPVLEYIPENVSSSTLRSVSTGSSRPSKICLVCGDEASGCHYGVVTCGSCKVFFKRAVEGQHNYLCAGRNDCIIDKIRRKNCPACRLQKCLQAGMNLGARKSKKLGKLKGIHEEQPQQQQPPPPPPPPQSPEEGTTYIAPAKEPSVNTALVPQLSTISRALTPSPVMVLENIEPEIVYAGYDSSKPDTAENLLSTLNRLAGKQMIQVVKWAKVLPGFKNLPLEDQITLIQYSWMCLSSFALSWRSYKHTNSQFLYFAPDLVFNEEKMHQSAMYELCQGMHQISLQFVRLQLTFEEYTIMKVLLLLSTIPKDGLKSQAAFEEMRTNYIKELRKMVTKCPNNSGQSWQRFYQLTKLLDSMHDLVSDLLEFCFYTFRESHALKVEFPAMLVEIISDQLPKVESGNAKPLYFHRK
B3: NR5A1/FTZ-F1A (protein, UniProt P33242 1-462, looked up)
Steroidogenic factor 1: MDYSYDEDLDELCPVCGDKVSGYHYGLLTCESCKGFFKRTVQNNKHYTCTESQSCKIDKTQRKRCPFCRFQKCLTVGMRLEAVRADRMRGGRNKFGPMYKRDRALKQQKKAQIRANGFKLETGPPMGVPPPPPPPPDYMLPPSLHAPEPKALVSGPPSGPLGDFGAPSLPMAVPGPHGPLAGYLYPAFSNRTIKSEYPEPYASPPQQPGPPYSYPEPFSGGPNVPELILQLLQLEPEEDQVRARIVGCLQEPAKSRSDQPAPFSLLCRMADQTFISIVDWARRCMVFKELEVADQMTLLQNCWSELLVLDHIYRQVQYGKEDSILLVTGQEVELSTVAVQAGSLLHSLVLRAQELVLQLHALQLDRQEFVCLKFLILFSLDVKFLNNHSLVKDAQEKANAALLDYTLCHYPHCGDKFQQLLLCLVEVRALSMQAKEYLYHKHLGNEMPRNNLLIEMLQAKQT
B4: NRIP1 (protein, UniProt P48552 1-1158, looked up)
Nuclear receptor-interacting …: MTHGEELGSDVHQDSIVLTYLEGLLMHQAAGGSGTAVDKKSAGHNEEDQNFNISGSAFPTCQSNGPVLNTHTYQGSGMLHLKKARLLQSSEDWNAAKRKRLSDSIMNLNVKKEALLAGMVDSVPKGKQDSTLLASLLQSFSSRLQTVALSQQIRQSLKEQGYALSHDSLKVEKDLRCYGVASSHLKTLLKKSKVKDQKPDTNLPDVTKNLIRDRFAESPHHVGQSGTKVMSEPLSCAARLQAVASMVEKRASPATSPKPSVACSQLALLLSSEAHLQQYSREHALKTQNANQAASERLAAMARLQENGQKDVGSYQLPKGMSSHLNGQARTSSSKLMASKSSATVFQNPMGIIPSSPKNAGYKNSLERNNIKQAANNSLLLHLLKSQTIPKPMNGHSHSERGSIFEESSTPTTIDEYSDNNPSFTDDSSGDESSYSNCVPIDLSCKHRTEKSESDQPVSLDNFTQSLLNTWDPKVPDVDIKEDQDTSKNSKLNSHQKVTLLQLLLGHKNEENVEKNTSPQGVHNDVSKFNTQNYARTSVIESPSTNRTTPVSTPPLLTSSKAGSPINLSQHSLVIKWNSPPYVCSTQSEKLTNTASNHSMDLTKSKDPPGEKPAQNEGAQNSATFSASKLLQNLAQCGMQSSMSVEEQRPSKQLLTGNTDKPIGMIDRLNSPLLSNKTNAVEENKAFSSQPTGPEPGLSGSEIENLLERRTVLQLLLGNPNKGKSEKKEKTPLRDESTQEHSERALSEQILMVKIKSEPCDDLQIPNTNVHLSHDAKSAPFLGMAPAVQRSAPALPVSEDFKSEPVSPQDFSFSKNGLLSRLLRQNQDSYLADDSDRSHRNNEMALLESKNLCMVPKKRKLYTEPLENPFKKMKNNIVDAANNHSAPEVLYGSLLNQEELKFSRNDLEFKYPAGHGSASESEHRSWARESKSFNVLKQLLLSENCVRDLSPHRSNSVADSKKKGHKNNVTNSKPEFSISSLNGLMYSSTQPSSCMDNRTFSYPGVVKTPVSPTFPEHLGCAGSRPESGLLNGCSMPSEKGPIKWVITDAEKNEYEKDSPRLTKTNPILYYMLQKGGNSVTSRETQDKDIWREASSAESVSQVTAKEELLPTAETKASFFNLRSPYNSHMGNNASRPHSANGEVYGLLGSVLTIKKESE

Tested on: HEK293FT cells transfected with TF library
Experiment: Screening of TF condensates based on fluorescent puncta
Format: cell-based
Details: Figure 1B numerical data; TF library screen, one value per transcriptional factor
Method in brief: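 HEK293FT cells were reverse-transfected with Flag- or GAL4-tagged TF plasmids (1.6 μg/ml, PEI). After 60 h, cells were cultured 12 h with or without glucose, then fixed and immunostained with anti-Flag or anti-GAL4 and Alexa 488 secondaries. Fluorescent puncta were imaged over fifty random fields per well by high-content imaging.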

Molecule	Z score of condensed fraction
B1	-0.2253
B2	-0.7191
B3	-0.1726
B4	2.676
